Blank lines part the entries; values can stand above or below the molecule they belong to.
What was measured:
[1] = target: V5-EphA2 (pcDNA3.2-V5-EphA2) (UniProt P29317); test: co-immunoprecipitation with densitometric quantification; details: n = 3; parent: est. 1.0; read off a plot
[2] = target: ephrin-B2 (Homo sapiens) (UniProt P52799); details: cited from earlier work
[3] = target: ephrin-A4 (Homo sapiens) (UniProt P52798); details: cited from earlier work
[4] = target: ephrin-A5 (Homo sapiens) (UniProt P52803); details: cited from earlier work
[5] = target: T1, fc-fusion protein of the EphA2 extracellular domain (UniProt P29317 24-537); test: ELISA; plates coated with ephrin-A5 Fc or ephrin-B2 Fc (3 μg/ml, 50 mM carbonate buffer pH 9.5, overnight at 4 °C); diluted EphA2 Fc analyte 1 h at room temperature; detection with biotinylated 1F7 mAb and UltraStreptavidin-HRP, OD492 nm (the results say that the EphA2 Fc was immobilised); details: both partners purified
T1 construct: EphA2 extracellular domain; Detected in the ELISA with biotinylated 1F7 mAb; also called EphA2 Fc
T1 sequence (P29317 24-537): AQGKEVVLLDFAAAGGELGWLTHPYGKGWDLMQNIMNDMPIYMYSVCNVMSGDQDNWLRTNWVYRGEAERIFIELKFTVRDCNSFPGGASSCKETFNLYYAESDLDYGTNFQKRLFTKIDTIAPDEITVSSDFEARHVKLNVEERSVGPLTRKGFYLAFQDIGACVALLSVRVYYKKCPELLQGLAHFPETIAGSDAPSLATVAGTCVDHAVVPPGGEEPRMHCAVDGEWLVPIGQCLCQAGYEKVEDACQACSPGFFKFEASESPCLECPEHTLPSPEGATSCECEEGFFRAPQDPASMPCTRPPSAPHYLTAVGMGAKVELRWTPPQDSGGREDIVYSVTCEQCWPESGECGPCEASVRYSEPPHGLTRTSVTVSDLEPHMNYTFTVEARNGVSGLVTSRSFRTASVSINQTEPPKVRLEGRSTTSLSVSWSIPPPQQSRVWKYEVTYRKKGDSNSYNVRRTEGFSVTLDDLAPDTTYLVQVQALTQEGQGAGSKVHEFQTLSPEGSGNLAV

Chain of ephrin-A4 (Homo sapiens) (P52798 26-170): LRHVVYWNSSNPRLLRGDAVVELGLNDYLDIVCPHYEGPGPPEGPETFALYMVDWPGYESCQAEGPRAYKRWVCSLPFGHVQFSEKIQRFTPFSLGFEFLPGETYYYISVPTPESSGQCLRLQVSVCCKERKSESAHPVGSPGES
Chain of V5-EphA2 (pcDNA3.2-V5-EphA2) (P29317 24-976): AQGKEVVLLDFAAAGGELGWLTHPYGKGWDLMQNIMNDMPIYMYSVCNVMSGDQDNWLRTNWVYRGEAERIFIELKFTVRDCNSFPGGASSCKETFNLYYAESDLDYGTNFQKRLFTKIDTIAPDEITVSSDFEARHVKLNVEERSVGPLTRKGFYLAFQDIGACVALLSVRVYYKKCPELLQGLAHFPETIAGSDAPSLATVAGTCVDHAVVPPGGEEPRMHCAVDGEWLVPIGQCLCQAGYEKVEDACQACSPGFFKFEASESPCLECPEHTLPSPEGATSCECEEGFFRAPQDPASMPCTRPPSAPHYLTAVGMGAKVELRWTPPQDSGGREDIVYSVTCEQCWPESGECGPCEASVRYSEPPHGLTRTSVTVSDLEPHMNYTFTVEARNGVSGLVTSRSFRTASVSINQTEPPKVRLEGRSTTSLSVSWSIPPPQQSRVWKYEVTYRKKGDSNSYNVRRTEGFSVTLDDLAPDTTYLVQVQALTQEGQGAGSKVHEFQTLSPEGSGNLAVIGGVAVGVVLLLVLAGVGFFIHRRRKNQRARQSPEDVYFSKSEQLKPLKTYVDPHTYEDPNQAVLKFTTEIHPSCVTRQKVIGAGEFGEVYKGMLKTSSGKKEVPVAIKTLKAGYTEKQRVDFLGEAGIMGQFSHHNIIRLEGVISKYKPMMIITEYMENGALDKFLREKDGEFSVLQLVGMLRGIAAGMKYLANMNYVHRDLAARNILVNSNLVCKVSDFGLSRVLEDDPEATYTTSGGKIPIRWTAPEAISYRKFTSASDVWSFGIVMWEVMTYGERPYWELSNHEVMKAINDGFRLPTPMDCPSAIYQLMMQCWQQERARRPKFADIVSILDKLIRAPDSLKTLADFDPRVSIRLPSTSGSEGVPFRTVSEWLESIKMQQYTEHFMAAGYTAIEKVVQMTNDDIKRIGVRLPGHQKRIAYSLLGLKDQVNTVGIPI

ratio to parent [1]: 0.98
Molecule: myc-tagged pendrin (pCMV-Myc-pendrin) (from UniProt O43511) F355L

Kd [5]: 2 nM
B2: ephrin-A5 Fc fusion protein (Fc fusion, UniProt P52803 21-203, looked up)
chain: QDPGSKAVADRYAVYWNSSNPRFQRGDYHIDVCINDYLDVFCPHYEDSVPEDKTERYVLYMVNFDGYSACDHTSKGFKRWECNRPHSPNGPLKFSEKFQLFTPFSLGFEFRPGREYFYISSAIPDNGRRSCLKLKVFVRPTNSCMKTIGVHDRVFDVNDKVENSLEPADDTVHESAEPSRGEN
notes: ephrin-A5

Further lines, the molecule ahead of its results:

Molecule: EphA4 (from UniProt P54764)
Kd [2]: 10800 nM | Kd [3]: 36 nM | Kd [4]: 360 nM

B1: soluble ephrin-B2 extracellular domain-Fc fusion protein (Fc fusion, UniProt P52799 28-229, looked up)
chain: IVLEPIYWNSSNSKFLPGQGLVLYPQIGDKLDIICPKVDSKTVGQYEYYKVYMVDKDQADRCTIKKENTPLLNCAKPDQDIKFTIKFQEFSPNLWGLEFQKNKDYYIISTSNGSLEGLDNQEGGVCQTRAMKILMKVGQDASSAGSTRNKDPTRRPELEAGTNGRSSTTSPFVKPNPGSSTDGNSAGHSGNNILGSEVALFA
notes: ephrin-B2 extracellular domain; also called ephrin-B2-Fc; ephrin-B2 Fc chimera protein
Kd [5]: 85 nM

Reference: publication PMC7067772, “Digenic inheritance of mutations in EPHA2 and SLC26A4 in Pendred syndrome” (Nature Communications, 2020)
